The text below walks through data of a protein production outcome set (Wang et al. 2014).

This data set is described as follows: label from the status in PepcDB records.
“MQVSQANLNLNFDANSLQRGKRYFSQGRVQNLVRETEGMSIQVLRAEVSGSQRQLYITEVRFDRYLPGKINTFCSCPVGFRCKHAAAVILQANHEAGLSAEKYESEADTRYKYPTAETWLEQAASVFSSIDNASNPECLAYLLHIEPHRSQQTLSVNKVRRRKSGEYSRGSKTTVWSRTNLEYDRPKYLRESDIAPLTWLNALPTAFRVSPVLEGTTGAYFIESALKTRRFFLESTQNPPLQLGETLESGFEWMQLPDKQHWQLVSKALPSHIRLLNTSPAYYLDEKELLIGRVENSLDARTTALLQQCPPLAESQLQQALPDLAPILEKAGAVLPESFQVPSMVQAAPQPILQLYSLQHPAPGTLPLLMARLMFSYEGHRVAFSEQEPRVLVDGNNGPLLVIRDEDAEIEWLHRDLPDFKMAGTMTDHLEADMVNALPYGSFLDFTLPTRNQWLDFIAFDLPRLDAGGWQIEMDESFDIPVIEIDQLHGSLKPDEESPGWFDVEVGIDYNGTQIDLIPLLQQALVYLDLNNDSDDALPETLWLHNGDALIRVVSDRIRPLVRTLLSLLGKERGGKLRLPKLDAAQVMGDLAADWQCSAELRNLSEKLTSFQALNHVPVPSEVRAELRHYQQDGLNWLMFLREFGLGGVLADDMGLGKTLQTLACIQAEKTAGRLTAPALVVCPTTLIANWEAEAEKFTPGLKRLVIHGQRRKPFFDMVAEADLVITSYPLLHRDLEQHQNQSYSLAFFDEAQHLKNPATVTSKAARRLPAENRIALTGTPMENHLGELWALFDLILPGYLADQKIFREHYRKPIEEQGNQSRYAELSRRVRPFMLRRTKDQVTPELPEKTEIVRHVELNRQQKDLYETIRATMDKRIRKLLAEKGAARSQIEILDALLKLRQICCHPALLNPEETAGSAKLDSLMEMLEQLLDEGRKVIIFSQFTSMLALIETTLKAAGIGYEKLTGQTRDRATPVKRFQNGESPVFLISLKAGGTGLNLTAADCVIHYDPWWNPAAEQQATDRAWRIGQDKPVFVYRLITEGTVEERIQALQARKSQLADGLYGKADTFSSAITADDISVLFEK”: the protein production entry is given as “failed”.

On to “MGHHHHHHSHNSSSCPEIQGFLHVKELGKKSWKKLYVCLRRSGLYCSTKGTSKEPRHLQLLADLEDSNIFSLIAGRKQYNAPTDHGLCIKPNKVRNETKELRLLCAEDEQTRTCWMTAFRLLKYGMLLYQNYRIPQQRKALLSPFSTPVRSVSENSLVAMDFSGQTGRVIENPAEAQSAALEEGHAWRKRSTRMNILGSQSPLHPSTLSTVIHRTQ”, for which the protein production result is reported as “failed”.

On to “MNDRACVSARTRWPLVSVLIPAFNHARFVQRCLDSVLEDPYPCKEIVIIDDGSRDATGEKISQWISDHGHRLPVHFVQRENRGVAATLNELALRARGEYLRLGASDDYLLPGGLDAQVRYLRGHPQKLAVIGDACVVDAHGQLMHASAMRDLHRVDKDLYRSESGIRHAVIRQWAVSGAVALLRRSALDARSRWDESLRIEDWDFFLRLVAGNALGFIDLPVCAYRLHGNNLSKTADVPARIANLCESRQVALRCAPLFDEPDRMLLHAQARYIAAKVEFLRRRPHRIAMHLAVYAGLSLSARWRPKRVARAAELA”, for which the protein production entry is “failed”.

Take “MNENDKEYQASLKSLETENIIDRKFYRPIGFYFAKLLSRTRVTPNMVTILSIFVGLGGGLCFVHTPYDLRWAVAGILCMVVANIMDCIDGQLARLTGIKSEIGRILDGIAGDIWFACIYICFIIRLTAEYPDALGSMTTGILIAVGLLSGISHLVQAAVTDYYKTLHLFFISPEKGKEFERSTSIRRRVKAMPHGVNRLFSSLYYYYTLIQERATPRLQRLLDQLEADYPQNTIPETLRQHLRKDSRRIMNIVDFLTFNGRTIPLFLIVLSGHIWLYFVFEILILNTVLVLGIRRHEAMCRHHLKERR”: the protein production entry is “failed”.

Regarding “MSILMPVRNEERFLPAALASLCRQSLTAWELIVVDDGSTDDTPELLRVAAARDRRVRVFNNAGAGLVDALNYGLAHCRAELVARMDGDDISHPQRLERQAAALDADPGLGLVATRFRHFPRHSVGLGMRAYEEWQNGLLTHEEIMRDRFVESPVVHPSVMARRQALTDAGGYRKTGWAEDYDLWLRLAAGGVRFTRLPEVLFFWRERPERATRTMGEYAADAFRACKIHHLCQGFLLGVDNVTLAGAGLEGRAWQRALAREGVRVGRWLDVDPRKQGRILHGAPVTAPDDVRAGAEKILVTVGTRGARDGVRAWARRAGLREGEDFVCVTLEHHHHHH”, the protein production entry was “failed”.

As for “MQQMNSRLKLTMAVALTAIVLLAGCASTPDWPVSARDNTKPVYSEKLLEQVPFYPQEKYQCGPASLAMMLNAQGLATNPDILKELVYLPGKEGSLQVEMVAGARAHDMLVYRLEPEPEAILAEVEAGNPVLVMQNLRLSWWPQWHFAVVVGYDSTEQVFILNTDTRRHYEMPYKVFYNTWSKAERWAAVILPPDQTPASAEMLPYLQAAHDLETTGHTLAAQRAYQTAITRWPEQPTPLMANANLQYQLGHFQNAVGSFLRVVEKFPGFSEGWNNLAIALNDAGCPARARQASECAAGLAPKRFKPLQDEARSHAADAAACPQIPACPSNAH”, the protein production result is reported as “failed”.

For the sequence “MATVAECNHSVLDLVTKMATMLVADEMKPKKQTAVLVAKKRSKIYESLLHSETMSSQDKLEMLHQVTSEVAKNPDRMDMLLRFQNLLEGQDKEESEITQDQDEENQSEVVIKRIKAGPLQLIETIEIVEEALHPKAFPDINQMNRALKPLQLQPYSDILTTSNLNINFPPEKLIPKIIPSTVIRMGLSESITRMRNEMEKPMHPPPRLPVLAKKVVAPLEDERPFVAQPGPEKHFVSDKLLTNELKILRNKNLVLNYLDEATLIDHLKKAACGIESLTFPISSADKLELRVRPNTTLPTMLPEVLADFANHFIRAGCAFLRLSSRTKWNNIAEMRLERPLNRAMRETIMDYLSTTRQFLLSLQADSLFQLLNNTSTAIQLLCQLDRMFENEPRLNLNTGITGSFLLSSIWLAIDTCGNKDFLHLLIYFLRCISRNYFIQLQRWIYHGELDESVNEIFISRCLNTSPSFTNQCSKEFFDKSYQVDNEAIPEFLVGCEEEILQCGKYNLVLRAYNAQHPVFDVQYPDIVVCLTEQQLKNMRRNLADKYAIIYKRFGWCSMQSIFEDRMATKRVFANLMVKRTQAHLDAWAQKQRELQIKANAQKKLQNDQLNAEQERIQQNHLEKRRQDIVNELAFQRECERMEDKLLEREKQELQKKVVQLAAVLSSSPDRSTVSDLSFASCIEEPDCLAESSSDKDDANTENSEDEATKQLDKTLNVPLEQPEAEYQADVDVDQPRGKECSLPNVFQYQRSHSDVINSNEHPTTQAEFNRNRQHGLSSDQFQQCHATVHLQESDLLKTAASTSSGLHAEIPQDINANLNCPDTKELTELQRNRKRNEHHDGFFSFNSTEDEHTHRLRSLLNSNTERGRNRLRVMETEFGLGYKNTDIETKATPCLPLEIDKLHVEIPLAVLTPMSTTSDVDFGDPSPRELPEIADTANNNNVSGSIESLSPELPKPVLAIAKPTSLLPKLDFGMKDERETEQDRDKVSTLPEACNPFMARRCLQLSVMAPLNAYYGLLRNEVLRIFQEQRIYEHFRKLRNYFFLVDGQFGATLTNEILGRIRAGVGPRSLSQKGILDTILTNALAACSADETTVSENLTLNCTTIPDTLNFLSVEATSMLKLNCKIDWPLNMVISSETISKYGQIFGYLLKLRHVSFVLDGTYEYLQQMGKLLGPELRTCTHFRHMQMMRHKMSHFMTSFQTHLVAKALLSTWKSFKEELCTADSIEALYKQHVAYLKRVAFLALLNRRSAKVKETIDNILVIILRFCKVIQSQSFIVDQDNYFVHPRFKRLQQEEAEFEKFLQYLIYLGNKAAASGYQEEIGDLICIINFNHYYKVSGNHTGSSMEDKKC”, the protein production result is listed as “failed”.

Take “AEITEVRIYKSKGNGSVKAYASVSFDNEFVVKGLKVVEGEKGLWVSMPSRRMKDGSFQDVFHPVSREARDKIVDAVLKAYQEQE”: the protein production entry is “failed”.

For the sequence “MVTGMFSLGRTYLFRVPEGEELLTYIKNFCKKEGIETAIINGIGTLKNPKIGYFLEEKKEYKVIPLKGSYELISLIGNVSLKDGEPFVHAHVSLGNEEGIVFGGHLVEGEVFVAEIFLQELKGEKIERKPTKYGLALWEELKLLEHHHHHH”, the protein production result is “not failed”.

In the case of “DVRVKFEHRGEKRILQFPRPVKLEDLRSKAKIAFGQSMDLHYTNNELVIPLTTQDDLDKAVELLDRSIHMKSLKILLVINGSTQATNLEP”, the protein production entry is reported as “not failed”.

Consider “MLIGEIMDLNLKNFLEDREEIIRDAKRKDEKSFKDFKKIVEEIKERENKDKIVCDFTEYNPLHKGHKYALEKGKEHGIFISVLPGPLERSGRGIPYFLNRYIRAEMAIRAGADIVVEGPPMGIMGSGQYMRCLIKMFYSLGAEIIPRGYIPEKTMEKVIDCINKGYHIQVKPYKIICIETGEILGEKLNIDNYVIASMSQMIYKLNREGLKFNPKFVFVKRLEGISGTKIREAIFSGKFEDIKNMLPKTTLSILKELYDNGKLNELILKRFEDRILETANEYDLYEYLPSNVAEILEKKRPFNNIEEIKNSLPYGFSRHFRERILSKLEARIPNETLSKYINNYPAKIKILAVKL”, for which the protein production result is given as “not failed”.

“MIGKTVIVGSKNMKEKILKFITSKFFVLGIQLLATIAVVYFTFKLDLVPTKYLIAGIVVLALLLAGFFGIIYSSEQKIKKGLSSKRGIVTKIISLLTSIILIAGCTYISRGNNFIENVSNATGQEYVVSVISLKNGKITKLKDLDSSKKIGVSYEKDTVTIAEALKDLDTEIGDHEYTKYDNYASLADALYEGKVDAIVVGEQYRTMLQTNHEEFNDVTKVLKSYAYDAKMEVTTKQTDVTENAFSIYVTGIDVYGSLKTVSRSDVNLIVTVNPKTKQILMTSIPRDCQINLHKNGKMDKLTHTGIYGTSETINTIQDLLEMKINYFARTNFSGMTNIVDALGGITVNSSEAFETLHGNYQISEGLNEMDGDKALCFVRERKRLKRGDFARGENQQKVLKAMLDKAMSPKIITNFNNILSAVEGCFETDMSDKEIKSLINMQLNDMADWKIINVQIEGEYQLMDDTFSMKGTNSDVMIPFESHIERVRELINKVEEGKEIKDSELKGLTH”: the protein production entry is on record as “failed”.

As for “MSLSYLTEEKLTIVGAAGMIGSNMAQTAAMMRLTPNLCLYDPFAVGLEGVAEEIRHCGFEGLNLTFTSDIKEALTDAKYIVSSGGAPRKEGMTREDLLKGNAEIAAQLGKDIKSYCPDCKHVIIIFNPADITGLVTLIYSGLKPSQVTTLAGLDSTRLQSELAKHFGIKQSLVTNTRTYGGHGEQMAVFASTAKVNGTPLTDLIGTDKLTNEQWAELKQRVVKGGANIIKLRGRSSFQSPSYVSIEMIRAAMGGEAFRWPAGCYVNVPGFEHIMMAMETTITKDGVKHSDINQLGNEAERAALKESYSHLAKLRDEVIAMGIIPAIADWKTVNPNEGHHHHHH”, the protein production entry is on record as “not failed”.

With “MKLHLTNLYGMAGDSTVILAQNAVQKIASQLGFREVGIYFYNIASDSPSEMNKRLDGIMASISIGDILVFQSPTWNGFEFDRLLFDKLKDMQVKIICFIHDVVPLMFDSNYYLMKDYLYMYNLSDVLIVPSERMKTRLMEEGLTTKKILVQGMWDHPHDLSLYTPAFKKELFFAGSLERFPDLQNWSQDTPLRVFSNKGEASSSARSLSIEGWKKDEELLLELSKGGFGLVWGTHQNEGESNQYYTLNISHKVSTYLTAGIPVIVPSSLSTAKFIVDQGLGFMADSLEEVHEIVDKMNLQEYQEMTNRIKTFSYLLKEGYFTKKLLVDAIYHLGID”, the protein production entry is listed as “failed”.

Consider “MPDIDAGPRCRDAGSRMFRLAHLTDPHVGPLPRPRLRQLLSKRAAGYVNWRRGRSRHHDMDLLGALIADLHGQGVDHVACTGDLCNLGLPDEWESARVFLEALGPADRVSFVPGNHDAYVRGSLEGLLAACGGWTEADDGQIRLFPYLRRRGPLALVGLSSAIPTKPFVASGRLGPVQIEAAERVLRDLATAPDRPCRVVMIHHPPHPGGAASGRELKDAAAFAAMIGRAGADLILHGHNHVGTVARITGPDGRPVPVVGAPSASARTLLTNRRASYYLYTVTPGENGFQIAVTERGLDEAGGIGELSGFDIETPPADRIGLVHRRRQRHT”, for which the protein production entry is “failed”.

In the case of “MSLSSGEHEASRVLRERDYRWEGTEEEAYKAEGTHFSGARRQTLVGRPAGQEAPAFETRYFEVEPGGYTTLERHEHTHVVMVVRGHAEVVLDDRVEPLTPLDCVYIAPHAWHQIHATGANEPLGFLCIVDSDRDRPQRPDADDLARMCADPAVARRIRTEGHHHHHH”, the protein production entry was “not failed”.
